This series concerns Escherichia coli TOP10. The series can be described thus: shrunken log2 fold change of peptide-encoding DNA abundance (4.5 h post-induction vs induction); higher = less antimicrobial activity (less host growth inhibition). Particulars: time post-induction: 4.5 h; library: site-saturation at positions 5, 18, 19, 20.
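Note: peptides expressed intracellularly from a pBAD plasmid library in pooled LB shake-flask culture, induced with 0.3% L-arabinose, DNA abundance read by NGS, three biological replicates, DESeq2 with apeglm shrinkage.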

As to RRIRLRPPRLPRPRPRPPQAPRP, the “shrunken log2 fold change” value worked out at 0.872.

RRIRQRPPRLPRPRPRPDYNPRP: the “shrunken log2 fold change” value was -0.161. In the case of RRIRIRPPRLPRPRPRPDYMPRP, the “shrunken log2 fold change” value is -1.09. For RRIRQRPPRLPRPRPRPLNAPRP, the “shrunken log2 fold change” value stood at 0.0127. To RRIRRRPPRLPRPRPRPWNIPRP belongs -0.0317; to RRIRPRPPRLPRPRPRPEPMPRP, 0.542; to RRIRFRPPRLPRPRPRPPGWPRP, 0.448. As to RRIRRRPPRLPRPRPRPGQGPRP, the “shrunken log2 fold change” value was found to be 0.278. On to RRIRGRPPRLPRPRPRPNPNPRP, for which the “shrunken log2 fold change” value worked out at 0.215. Consider RRIRMRPPRLPRPRPRPDLCPRP, for which the “shrunken log2 fold change” value turned out to be 0.196.

For the sequence RRIRERPPRLPRPRPRPQTIPRP, the “shrunken log2 fold change” value is -0.378. On to RRIRNRPPRLPRPRPRPIIEPRP, for which the “shrunken log2 fold change” value stood at 0.00312. RRIRNRPPRLPRPRPRPAQIPRP: the “shrunken log2 fold change” value is 0.603. On to RRIRSRPPRLPRPRPRPINNPRP, for which the “shrunken log2 fold change” value was -0.647.

With RRIRLRPPRLPRPRPRPWTKPRP, the “shrunken log2 fold change” value was -0.139. As to RRIRQRPPRLPRPRPRPGFHPRP, the “shrunken log2 fold change” value is 0.00101. In the case of RRIRWRPPRLPRPRPRPSFHPRP, the “shrunken log2 fold change” value was -0.458.

Regarding RRIRWRPPRLPRPRPRPTWHPRP, the “shrunken log2 fold change” value turned out to be 0.0819. With RRIRLRPPRLPRPRPRPDHVPRP, the “shrunken log2 fold change” value was -0.00963.

With RRIRLRPPRLPRPRPRPGIWPRP, the “shrunken log2 fold change” value came out at 0.355. With RRIRPRPPRLPRPRPRPVWYPRP, the “shrunken log2 fold change” value is -0.219. RRIRARPPRLPRPRPRPWAMPRP: the “shrunken log2 fold change” value was 0.0453. To RRIRLRPPRLPRPRPRPMCYPRP belongs -0.294.

RRIRHRPPRLPRPRPRPPDSPRP: the “shrunken log2 fold change” value came to 0.139. For the sequence RRIRERPPRLPRPRPRPVWAPRP, the “shrunken log2 fold change” value was 0.0658. To RRIRRRPPRLPRPRPRPKYHPRP belongs -0.153; to RRIRCRPPRLPRPRPRPALWPRP, 0.621.

As to RRIRQRPPRLPRPRPRPTGVPRP, the “shrunken log2 fold change” value is 0.216. In the case of RRIRGRPPRLPRPRPRPMGVPRP, the “shrunken log2 fold change” value came out at 0.00855. With RRIRSRPPRLPRPRPRPVDTPRP, the “shrunken log2 fold change” value is -0.103. To RRIRRRPPRLPRPRPRPIMMPRP belongs -0.00819; to RRIRTRPPRLPRPRPRPVMQPRP, -0.0482; to RRIRVRPPRLPRPRPRPCHVPRP, -0.859. For the sequence RRIRPRPPRLPRPRPRPCFYPRP, the “shrunken log2 fold change” value is -0.242.

Consider RRIRFRPPRLPRPRPRPQWDPRP, for which the “shrunken log2 fold change” value was -0.272. As to RRIRARPPRLPRPRPRPEIIPRP, the “shrunken log2 fold change” value worked out at 0.396. Consider RRIRFRPPRLPRPRPRPRAAPRP, for which the “shrunken log2 fold change” value stood at 0.408.

Consider RRIRQRPPRLPRPRPRPAQTPRP, for which the “shrunken log2 fold change” value worked out at 0.13. As for RRIRTRPPRLPRPRPRPHVNPRP, the “shrunken log2 fold change” value is -0.0758. To RRIRSRPPRLPRPRPRPIMWPRP belongs -0.109. In the case of RRIRERPPRLPRPRPRPNAYPRP, the “shrunken log2 fold change” value is -0.0628.

For the sequence RRIRNRPPRLPRPRPRPTGPPRP, the “shrunken log2 fold change” value was found to be 0.126. To RRIRARPPRLPRPRPRPWFQPRP belongs 0.0762.

Regarding RRIRKRPPRLPRPRPRPEQWPRP, the “shrunken log2 fold change” value is -0.0362.

Consider RRIRDRPPRLPRPRPRPSFRPRP, for which the “shrunken log2 fold change” value was -0.198. With RRIRQRPPRLPRPRPRPQVPPRP, the “shrunken log2 fold change” value is -0.148. To RRIRSRPPRLPRPRPRPTVQPRP belongs -0.204; to RRIRIRPPRLPRPRPRPFLRPRP, -0.2. As to RRIRNRPPRLPRPRPRPLYPPRP, the “shrunken log2 fold change” value is -0.586. Regarding RRIRDRPPRLPRPRPRPKMPPRP, the “shrunken log2 fold change” value is -0.0144. For RRIRKRPPRLPRPRPRPHDMPRP, the “shrunken log2 fold change” value turned out to be 0.0328. As for RRIRPRPPRLPRPRPRPPKWPRP, the “shrunken log2 fold change” value was 0.469.

As for RRIRPRPPRLPRPRPRPCRKPRP, the “shrunken log2 fold change” value is -0.134. Consider RRIRSRPPRLPRPRPRPQKYPRP, for which the “shrunken log2 fold change” value is -0.428. With RRIRSRPPRLPRPRPRPARSPRP, the “shrunken log2 fold change” value is 0.158.

On to RRIRYRPPRLPRPRPRPTYTPRP, for which the “shrunken log2 fold change” value is -0.802. With RRIRSRPPRLPRPRPRPSLKPRP, the “shrunken log2 fold change” value was 0.0541. Regarding RRIRERPPRLPRPRPRPWELPRP, the “shrunken log2 fold change” value is -0.238.

On to RRIRLRPPRLPRPRPRPPYGPRP, for which the “shrunken log2 fold change” value came to 0.0785. As for RRIRLRPPRLPRPRPRPINRPRP, the “shrunken log2 fold change” value turned out to be 0.0141. RRIRARPPRLPRPRPRPTMFPRP: the “shrunken log2 fold change” value was determined as 0.121. For RRIRMRPPRLPRPRPRPWNHPRP, the “shrunken log2 fold change” value was -0.0446. Take RRIRYRPPRLPRPRPRPTCMPRP: the “shrunken log2 fold change” value is -0.156. As for RRIRCRPPRLPRPRPRPARDPRP, the “shrunken log2 fold change” value turned out to be 1.84. As to RRIRLRPPRLPRPRPRPYRKPRP, the “shrunken log2 fold change” value was -0.262. To RRIRPRPPRLPRPRPRPQKYPRP belongs -0.257; to RRIRRRPPRLPRPRPRPTWMPRP, 0.174. As for RRIRRRPPRLPRPRPRPRSWPRP, the “shrunken log2 fold change” value turned out to be 0.648.

Regarding RRIRMRPPRLPRPRPRPLKQPRP, the “shrunken log2 fold change” value came out at 0.513. For RRIRSRPPRLPRPRPRPTVWPRP, the “shrunken log2 fold change” value was 0.185. As for RRIRIRPPRLPRPRPRPMGDPRP, the “shrunken log2 fold change” value was -0.114. Regarding RRIRARPPRLPRPRPRPTHTPRP, the “shrunken log2 fold change” value turned out to be 0.664. Regarding RRIRTRPPRLPRPRPRPHYLPRP, the “shrunken log2 fold change” value is -0.194. As for RRIRDRPPRLPRPRPRPGRRPRP, the “shrunken log2 fold change” value was found to be 0.311. RRIRARPPRLPRPRPRPVLKPRP: the “shrunken log2 fold change” value stood at 0.22. To RRIRQRPPRLPRPRPRPNGHPRP belongs -0.104; to RRIRSRPPRLPRPRPRPVNQPRP, -0.155. For the sequence RRIRNRPPRLPRPRPRPREDPRP, the “shrunken log2 fold change” value turned out to be 0.102. For RRIRPRPPRLPRPRPRPFHAPRP, the “shrunken log2 fold change” value was -0.0472. To RRIRCRPPRLPRPRPRPDLIPRP belongs -0.109; to RRIRSRPPRLPRPRPRPGLDPRP, 0.127. As to RRIRDRPPRLPRPRPRPFDNPRP, the “shrunken log2 fold change” value turned out to be 0.0553.

As to RRIRCRPPRLPRPRPRPHYSPRP, the “shrunken log2 fold change” value was -0.723. RRIRIRPPRLPRPRPRPTPIPRP: the “shrunken log2 fold change” value turned out to be 0.153. With RRIRWRPPRLPRPRPRPAHEPRP, the “shrunken log2 fold change” value came out at 0.1. RRIRNRPPRLPRPRPRPLKEPRP: the “shrunken log2 fold change” value stood at 0.00854. For RRIRIRPPRLPRPRPRPTWCPRP, the “shrunken log2 fold change” value was determined as 0.0363. To RRIRHRPPRLPRPRPRPWAGPRP belongs -0.15; to RRIRNRPPRLPRPRPRPNTQPRP, -0.148; to RRIRCRPPRLPRPRPRPGIRPRP, -0.107. Take RRIRARPPRLPRPRPRPGTLPRP: the “shrunken log2 fold change” value came out at 0.22. For the sequence RRIRCRPPRLPRPRPRPSLLPRP, the “shrunken log2 fold change” value is -0.386. Turning to RRIRSRPPRLPRPRPRPPCVPRP, the “shrunken log2 fold change” value is 0.00342. Consider RRIRNRPPRLPRPRPRPPPEPRP, for which the “shrunken log2 fold change” value stood at 1.1. Turning to RRIRNRPPRLPRPRPRPVLLPRP, the “shrunken log2 fold change” value was -0.0738. RRIRMRPPRLPRPRPRPTADPRP: the “shrunken log2 fold change” value worked out at 2.84. Regarding RRIRFRPPRLPRPRPRPYYNPRP, the “shrunken log2 fold change” value was -0.855. In the case of RRIRNRPPRLPRPRPRPAGPPRP, the “shrunken log2 fold change” value is -0.0019. On to RRIRCRPPRLPRPRPRPLKIPRP, for which the “shrunken log2 fold change” value was -0.511. Regarding RRIRMRPPRLPRPRPRPHKIPRP, the “shrunken log2 fold change” value was -0.188. On to RRIRMRPPRLPRPRPRPQVKPRP, for which the “shrunken log2 fold change” value was -0.0452. RRIRSRPPRLPRPRPRPQEHPRP: the “shrunken log2 fold change” value is -0.112. To RRIRPRPPRLPRPRPRPPCQPRP belongs 0.268; to RRIRSRPPRLPRPRPRPCVPPRP, -0.0369. To RRIRHRPPRLPRPRPRPPGVPRP belongs 0.0725. RRIRLRPPRLPRPRPRPWLFPRP: the “shrunken log2 fold change” value is 0.193. To RRIRMRPPRLPRPRPRPIFAPRP belongs 0.556; to RRIRRRPPRLPRPRPRPQIDPRP, 0.332; to RRIRMRPPRLPRPRPRPYEMPRP, 0.0693. For RRIRFRPPRLPRPRPRPENVPRP, the “shrunken log2 fold change” value was -0.0124. To RRIRMRPPRLPRPRPRPGYKPRP belongs -0.517; to RRIRRRPPRLPRPRPRPQTRPRP, 0.511. To RRIRNRPPRLPRPRPRPQKDPRP belongs -0.564; to RRIRNRPPRLPRPRPRPVGQPRP, -0.185; to RRIRGRPPRLPRPRPRPYHHPRP, -0.176. Take RRIRARPPRLPRPRPRPCCEPRP: the “shrunken log2 fold change” value came out at 0.512. For RRIRIRPPRLPRPRPRPMDIPRP, the “shrunken log2 fold change” value is -0.911. For the sequence RRIRMRPPRLPRPRPRPEWIPRP, the “shrunken log2 fold change” value was -0.0024. For RRIRGRPPRLPRPRPRPYQPPRP, the “shrunken log2 fold change” value was -0.257. As for RRIRDRPPRLPRPRPRPHNLPRP, the “shrunken log2 fold change” value turned out to be 0.156. As to RRIRWRPPRLPRPRPRPPDTPRP, the “shrunken log2 fold change” value came to 0.525. For RRIRHRPPRLPRPRPRPSSRPRP, the “shrunken log2 fold change” value was -0.175. RRIRQRPPRLPRPRPRPDTAPRP: the “shrunken log2 fold change” value is -0.0746. To RRIRYRPPRLPRPRPRPRFEPRP belongs -0.386; to RRIRVRPPRLPRPRPRPLPEPRP, 0.423.

Source of the values: the supplement of paper PMC9112550, “Optimization of the antimicrobial peptide Bac7 by deep mutational scanning” (BMC Biology, 2022).
